From patent US20160009812A1 (University of Texas, published 2016)

What was measured:
[1] = molecular target: T1, total (intracellular) vimentin of human cancer cells (human, UniProt P08670 2-466); assay: confocal microscopy, intracellular staining
T1 construct: Endogenous protein in lysates or in permeabilized cells; also called total vimentin; cytoplasmic vimentin

[2] = molecular target: T2, cell-surface vimentin on canine circulating tumor cells (canine, UniProt A0A8C0N8E3 2-466); assay: isolation and confocal microscopy of CTC from canine blood
T2 construct: also called CSV
T2 sequence (A0A8C0N8E3 2-466 limits assumed): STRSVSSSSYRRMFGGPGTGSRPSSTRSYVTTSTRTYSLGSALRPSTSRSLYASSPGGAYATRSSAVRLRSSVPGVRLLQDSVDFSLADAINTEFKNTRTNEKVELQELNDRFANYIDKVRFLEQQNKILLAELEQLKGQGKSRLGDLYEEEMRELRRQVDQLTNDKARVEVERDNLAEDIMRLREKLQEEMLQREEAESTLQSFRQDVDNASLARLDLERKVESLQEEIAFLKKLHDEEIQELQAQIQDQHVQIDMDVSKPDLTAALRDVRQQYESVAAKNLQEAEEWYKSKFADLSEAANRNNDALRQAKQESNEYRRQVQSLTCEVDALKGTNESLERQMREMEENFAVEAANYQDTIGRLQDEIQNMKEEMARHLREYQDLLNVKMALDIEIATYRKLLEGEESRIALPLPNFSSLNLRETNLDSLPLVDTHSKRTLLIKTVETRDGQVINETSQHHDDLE

[3] = molecular target: vimentin-derived peptides (10, 12 and 15 aa peptides on the peptide microarray); assay: peptide microarray; 84-1 at 0.2 ug/mL compared with 12-1 at 1 ug/mL
[4] = molecular target: T3, cell-surface vimentin on mouse cancer cells (LM8) (mouse, UniProt P20152 2-466); assay: immunofluorescence staining of mouse LM8 cells spiked into blood
T3 construct: whole, on cells; also called CSV
T3 sequence (P20152 2-466): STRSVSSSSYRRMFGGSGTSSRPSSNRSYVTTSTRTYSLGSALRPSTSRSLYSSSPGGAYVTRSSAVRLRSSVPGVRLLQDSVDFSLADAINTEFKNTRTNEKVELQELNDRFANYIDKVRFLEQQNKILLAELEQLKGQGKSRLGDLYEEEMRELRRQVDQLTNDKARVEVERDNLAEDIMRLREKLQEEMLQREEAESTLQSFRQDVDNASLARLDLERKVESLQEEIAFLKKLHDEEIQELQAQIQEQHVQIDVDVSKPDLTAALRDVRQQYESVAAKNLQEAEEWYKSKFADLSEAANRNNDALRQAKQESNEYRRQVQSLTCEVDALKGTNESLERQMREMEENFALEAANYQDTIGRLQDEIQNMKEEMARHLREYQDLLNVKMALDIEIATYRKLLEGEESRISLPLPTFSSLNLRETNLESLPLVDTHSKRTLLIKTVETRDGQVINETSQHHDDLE
Method: FIG. 2B: Detection of single cell spiked into blood using fluorescence microscopy. Single LM8 cell was isolated using serial dilution and spot analysis and spiked into 1 ml of blood. After RBC lysis, mononucleated cell population was stained for 84-1 mAb and AlexaFluor-488 secondary antibody to detect CSV positive cells. […] FIG. 2C: Isolation of single cell from whole blood. Single cell spiked into whole blood was isolated using EasySep based 84-1 positive and CD45 negative selection. This single cell was observable on the culture dish 2 hr after incubation at 37° C. FIG. 2D: Micrographs of cells isolated from blood were costained using antibodies against CSV, CD45 and a nuclear stain DRAQ5. Scale indicates 10 μm. FIG. 2E: Enumeration of CSV positive CTCs from healthy, primary and metastatic patient blood specimens. Blood from the primary cancer patients was used to select threshold of detection (dashed line).
Based on the detection of CSV in a range of cancer cell lines of both epithelial and non-epithelial origin, the inventors hypothesized that it could serve as a biomarker to detect CTC. […] From micrographs it is evident that single cell is detectable in whole blood utilizing fluorescence microscopy (FIG. 2B). […] The inventors further evaluated the sensitivity and specificity of 84-1 antibody using HLM3 and LM7 cells that are positive for 84-1 staining (Table 5).

[5] = molecular target: T4, cell-surface vimentin (CSV) on human cancer cells (human, UniProt P08670 2-466); assay: screening on osteosarcoma cell lines with and without vimentin on the cell surface
T4 construct: whole, on cells; Endogenous vimentin on the surface of non-permeabilized cancer cells
T4 sequence (P08670 2-466): as the sequence (A0A8C0N8E3 2-466 limits assumed) above, with G20A, T26S, A59V, S200N, D238E, D250E, M257V, N316T, A411S counted along it

T1 sequence (P08670 2-466 limits assumed): as the sequence (A0A8C0N8E3 2-466 limits assumed) above, with G20A, T26S, A59V, S200N, D238E, D250E, M257V, N316T, A411S counted along it

binding result [1]: binds | binding result [2]: binds | spot intensity relative to antibody 12-1 [3]: 2 fold | binding result [4]: binds | binding result [5]: binds
B1: 84-1 monoclonal antibody (antibody, V domains shown)
VH: QVQLKQSGPGLVQPSQSLSITCTVSGFSLTRYGVHWVRQSPGKGLEWLGVIWSGGSTDYNAAFISRLSFSKDNSKSQVFFKMNSLQANDTAIYYCARRSYYYAMDYWGQGTSVTVS
VL: DVLMTQTPLSLPVSLGDQASISCRSSQSIVHRIGNTYLEWYLQKPGQSPKLLIYKVSNRFSGVPDRFSGSGSGTDFTLKISRVEAEDLGVYYCFQGSHVPLTFGAGTKLEL
notes: Mouse monoclonal antibody from hybridoma 84-1, raised against rhVim with 6-His; It was detected with anti-mouse IgG; also called 84-1 mAb; 84-1 antibody
